The values that follow come from patent publication US20090170219, “Nucleic acid capable of binding to immunoglobulin G and use thereof” (published 2009).

B1: SEQ ID NO:19 (ssRNA)
RNA: GGGUACGAGUCUGGACUUGCAACAAGGUGCUCCACCUACCUAGUGGAACUUGCUGAUGAGGCUCACAACAGGC
modifications: 2'-F at all pyrimidines
B2: SEQ ID NO:17 C8U (ssRNA)
RNA: GGAGGUGUUCCGAAAGGAACUCC
modifications: 2'-F at all pyrimidines [2'-F pyrimidines at 6,8,9,10,11,20,21,22,23]
B3: SEQ ID NO:23 (ssRNA)
RNA: GGGUACGAGUCUGGACUUGCAACCUAAUGCGGUGCUCCUCUGGAACCAUUAGCUGUUGCAAAUGAGGCUCACAACAGGC
modifications: 2'-F at all pyrimidines
B4: SEQ ID NO:22 (ssRNA)
RNA: GGGUACGAGUCUGGACUUGCAAUACGAGGUGCUCCAAGGAAUCGCCCUGGAACUCGACGACGUGAGGCUCACAACAGGC
modifications: 2'-F at all pyrimidines
B5: SEQ ID NO:21 (ssRNA)
RNA: GGGUACGAGUCUGGACUUGCAACGGAUACAGGUGCUCCGAUCUUCGGAACUGGCGUUGGCGGUGAGGCUCACAACAGGC
modifications: 2'-F at all pyrimidines
B6: SEQ ID NO:20 (ssRNA)
RNA: GGGUACGAGUCUGGACUUGCAAGGUGCUCCGUUAGCAUUGCGGAACUUGCAAUAUAUCCUAUUGAGGCUCACAACAGGC
modifications: 2'-F at all pyrimidines
B7: SEQ ID NO:13 (ssRNA)
RNA: GGACAGGUGCUCUGCGAGCCACGCGGAACUGUCC
modifications: 2'-F at all pyrimidines
B8: SEQ ID NO:18 (ssRNA)
RNA: GGAGGUGCUCGAAAGAACUCC
modifications: 2'-F at all pyrimidines
B9: SEQ ID NO:12 (ssRNA)
RNA: GGACAGGUGCUCCAUCAACAAAAUGUUACAUGGAACUGUCC
modifications: 2'-F at all pyrimidines
B10: SEQ ID NO:17-13 (23F43) (mixed)
RNA: GGAGGUGCUCCGAAAGGAACUCCAAAAAAAAAAAAAAAA
modifications: as 17-8 with 2'-OMe C11
B11: SEQ ID NO:17-1 (23F1) (mixed)
mixed: GGAGGUGCUCCGAAAGGAACTCCAAAAAAAAAAAAAAAA
modifications: 2'-F U6 C8 U9 C20; deoxy C10 C11 T21 C22 C23 and A16 tail; rest 2'-OH
B12: SEQ ID NO:17-11 (23F41) (mixed)
RNA: GGAGGUGCUCCGAAAGGAACUCCAAAAAAAAAAAAAAAA
modifications: as 17-8 with 2'-OMe U9
B13: SEQ ID NO:17-14 (23F31) (mixed)
RNA: GGAGGUGCUCCGAAAGGAACUCCAAAAAAAAAAAAAAAA
modifications: as 17-7 with 2'-OMe U9
B14: SEQ ID NO:17-10 (23F33) (mixed)
RNA: GGAGGUGCUCCGAAAGGAACUCCAAAAAAAAAAAAAAAA
modifications: as 17-7 with 2'-OMe G17
B15: SEQ ID NO:17-6 (23F12) (mixed)
RNA: GGAGGUGCUCCGAAAGGAACUCCAAAAAAAAAAAAAAAA
modifications: deoxy G1 G2 G7 G12-A15 C22 C23 and A16 tail; 2'-F U6 C8 U9 C10 C11 C20 U21; rest 2'-OH
B16: SEQ ID NO:17-5 (23F11) (mixed)
RNA: GGAGGUGCUCCGAAAGGAACUCCAAAAAAAAAAAAAAAA
modifications: deoxy G1 G2 G12-G17 C22 C23 and A16 tail; 2'-F U6 C8 U9 C10 C11 C20 U21; rest 2'-OH
B17: SEQ ID NO:17-2 (23F2) (mixed)
RNA: GGAGGUGCUCCGAAAGGAACUCCAAAAAAAAAAAAAAAA
modifications: deoxy G1 G2 G12-A15 C22 C23 and A16 tail; 2'-F U6 C8 U9 C10 C11 C20 U21; rest 2'-OH
B18: SEQ ID NO:17-8 (23F25) (mixed)
RNA: GGAGGUGCUCCGAAAGGAACUCCAAAAAAAAAAAAAAAA
modifications: 2'-OMe G1 G2 G12-A15 C22 C23; 2'-F U6 C8 U9 C10 C11 C20 U21; deoxy A16 tail; rest 2'-OH
B19: SEQ ID NO:17-12 (23F42) (mixed)
RNA: GGAGGUGCUCCGAAAGGAACUCCAAAAAAAAAAAAAAAA
modifications: as 17-8 with 2'-OMe C10
B20: SEQ ID NO:17-4 (23F10) (mixed)
RNA: GGAGGUGCUCCGAAAGGAACUCCAAAAAAAAAAAAAAAA
modifications: deoxy G1 G2 C11 G12-A15 C22 C23 and A16 tail; 2'-F U6 C8 U9 C10 C20 U21; rest 2'-OH
B21: SEQ ID NO:15-3 (30F-3) (mixed)
RNA: GGAGGUGCUCCGCGAGCCACGCGGAACUCC
modifications: deoxy G1 G2 C11 C13 A15-A19 C20 C22 C29 C30; 2'-F U6 C8 U9 C10 C27 U28; rest 2'-OH
B22: SEQ ID NO:15-4 (30F-4) (mixed)
RNA: GGAGGUGCUCCGCGGAAACGCGGAACUCC
modifications: deoxy G1 G2 C13 G15 A16 A17 A18 C19 C21 C28 C29; 2'-F U6 C8 U9 C10 C11 C26 U27; rest 2'-OH
B23: SEQ ID NO:15 (ssRNA)
RNA: GGAGGUGCUCUGCGAGCCACGCGGAACUCC
modifications: 2'-F at all pyrimidines
B24: SEQ ID NO:11 (ssRNA)
RNA: GGACGAGUUACAGGUGCUCCAUCAACAAAAUGUUACAUGGAACUGUAACGGCCG
modifications: 2'-F at all pyrimidines
B25: SEQ ID NO:10 (ssRNA)
RNA: GGAAUGGACGAGUUACAGGUGCUCCAUCAACAAAAUGUUACAUGGAACUGUAACGGCCGACAU
modifications: 2'-F at all pyrimidines
B26: SEQ ID NO:14 (ssRNA)
RNA: GGACAGGUGCUCUGCGGAAACGCGGAACUGUCC
modifications: 2'-F at all pyrimidines
B27: SEQ ID NO:16 (ssRNA)
RNA: GGACAGGUGCUCCGAAAGGAACUGUCC
modifications: 2'-F at all pyrimidines
B28: SEQ ID NO:6 (ssRNA)
RNA: GGGACACAAUGGACGGCUGGUAAGGUGCUCGGAAUGGAACUCGUCAUUCGGAACUUAACGGCCGACAUGAGAG
modifications: 2'-F at all pyrimidines
B29: SEQ ID NO:2 (ssRNA)
RNA: GGGACACAAUGGACGUCAAAGAAGAGGUGCUCUGCGAGCCACGCGGAACUCUAUAACGGCCGACAUGAGAG
modifications: 2'-F at all pyrimidines
B30: SEQ ID NO:5 (ssRNA)
RNA: GGGACACAAUGGACGACUACAAGGUGCUCCUUGAAAUGUUAAAUGAGGAACUUGUAACGGCCGACAUGAGAG
modifications: 2'-F at all pyrimidines
B31: SEQ ID NO:7 (ssRNA)
RNA: GGGACACAAUGGACGGGUGUUACAGGUGCUUGAUAAAGGUAGAAAAUCAAACUGUAACGGCCGACAUGAGAG
modifications: 2'-F at all pyrimidines
B32: SEQ ID NO:4 (ssRNA)
RNA: GGGACACAAUGGACGGCCAACGUUAACUGGAACUGUAAAUCAGGUGCUCGAGAUAACGGCCGACAUGAGAG
modifications: 2'-F at all pyrimidines
B33: SEQ ID NO:8 (ssRNA)
RNA: GGGACACAAUGGACGAAAGGUGCUCCAACUAAAUUUGGAACUUUCCACCCAUAAUAACGGCCGACAUGAGAG
modifications: 2'-F at all pyrimidines
B34: SEQ ID NO:3 (ssRNA)
RNA: GGGACACAAUGGACGGCGUAAAAUGGAACCUGGGUUAGAAUAUCGGGGGUGCUCCGUAACGGCCGACAUGAGAG
modifications: 2'-F at all pyrimidines
B35: SEQ ID NO:9 (ssRNA)
RNA: GGGCCACAGCGAGGUGCUCCACCAUUCACGUGGAACUCGUGGGCAGCCCGUCCCCGCGUGUGGUCGG
modifications: 2'-F at all pyrimidines

The term Kd denotes the constant that tells how readily two partners part at equilibrium.

In one series the target is T1, IgG1 (human, UniProt P01857-1 P01857-1:1-330). Description: SPR. The conditions noted are these: tags: Calbiochem; chain copies: 2.
T1 sequence (P01857 other isoform, or with tags, fused parts or gaps): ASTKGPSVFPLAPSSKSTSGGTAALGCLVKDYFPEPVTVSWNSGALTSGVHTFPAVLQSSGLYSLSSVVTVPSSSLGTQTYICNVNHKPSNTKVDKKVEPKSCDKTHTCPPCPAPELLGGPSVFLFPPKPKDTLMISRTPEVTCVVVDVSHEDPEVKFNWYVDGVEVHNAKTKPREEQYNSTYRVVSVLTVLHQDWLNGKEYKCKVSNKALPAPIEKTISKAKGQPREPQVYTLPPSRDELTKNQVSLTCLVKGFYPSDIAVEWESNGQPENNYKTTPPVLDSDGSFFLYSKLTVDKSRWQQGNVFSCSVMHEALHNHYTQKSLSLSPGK
As to B1, the binding result is reported as “binds”.

In the case of B2, the binding result is given as “no binding”.

With B3, the binding result is on record as “binds”.

Staying with this series, now noted: tags: Calbiochem; chain copies: 2; GGUGCU bulge.
Turning to B4, the binding result is “binds”.

As to B5, the binding result is “binds”.

With B6, the binding result is on record as “binds”.

Still in this series, the particulars now being: tags: Calbiochem; chain copies: 2; label: 3' A16 tail for immobilisation.
As to B7, the binding result is “binds”.

As to B8, the binding result is reported as “binds”.

Consider B9, for which the binding result is recorded as “binds”.

The target in a further series is T1, IgG1. Put plainly: SPR; parent SEQ 17 ++. The conditions noted are these: tags: Calbiochem; chain copies: 2. The method, then:
(§1) Used for the measurements was BIAcore 2000 manufactured by BIAcore. Used as the sensor chip was the SA chip having streptavidin immobilized thereon. Bound thereto was about 1000 RU of 16-residue Poly dT having biotin bound to the 5′ end thereof. The RNA for use as the ligand had 16-residue Poly A added to the 3′ end thereof, and immobilized to the SA chip via a bond between dT and A. The amount immobilized was adjusted to about 1000 RU by injecting 60 μL at a concentration of 0.01 μg/μL. 70 μL of IgG-Fc for analyte (manufactured by Athens Research & Technology), adjusted to 0.6 μM, was injected. The running buffer used had the same components as those of the solution A used in SELEX.
The RNAs were prepared by chemical synthesis (manufactured by Gene Design). Their binding affinities were measured by a surface plasmon resonance method as in Example 1. Used as the IgG was human IgG1 (manufactured by Calbiochem).
As to B10, the binding result was “binds”.

With B11, the binding result is reported as “binds”.

With B12, the binding result is given as “binds”.

With B13, the binding result is recorded as “binds”.

As to B14, the binding result is “binds”.

Take B15: the binding result was “binds”.

Take B16: the binding result is on record as “binds”.

Regarding B17, the binding result is recorded as “binds”.

B18: the binding result is reported as “binds”.

As for B19, the binding result is given as “binds”.

With B20, the binding result is “binds”.

In the next series the target is T1, IgG1. Put plainly: SPR; parent SEQ 15 ++++. Conditions: tags: Calbiochem; chain copies: 2. On the technique in general: Surface plasmon resonance follows binding to a sensor surface in real time, without labels.
B21: the binding result is “binds”.

Take B22: the binding result is listed as “binds”.

For another series, the target named is T1, IgG1. Description: SPR; solution A. Conditions: tags: Calbiochem; chain copies: 2; label: 3' A16 tail for SPR; 5' biotin for serum pull-down. Here is the method: as §1
The dissociation constant was determined by immobilizing an RNA having 16-residue PolyA added to the 3′ end thereof onto a sensor chip via an A-dT bond, injecting different concentrations of IgG (0.6 μM to 0.05 μM), and performing surface plasmon resonance.
Measurements were performed in the same manner as Example 1 by immobilizing an RNA having 16-residue Poly A added thereto via an A-pT bond, and injecting IgG thereto.
As for B23, binding was put at a Kd of 5 nM.

The series is the same for the next values; noted with them: tags: Calbiochem; chain copies: 2; label: 3' A16 tail for immobilisation.
Regarding B24, the affinity, expressed as Kd, was 1 nM.

B25: the Kd was 6 nM.

With B26, the equilibrium dissociation constant (Kd) came out at 4 nM.

As for B27, the Kd was 6 nM.

The same series, now with this note: tags: Calbiochem; chain copies: 2; label: 3' A16 tail for immobilisation; GGUGCU bulge.
For the molecule B28, the affinity, expressed as Kd, was 1 nM. That is a single-digit nanomolar value.

B29: the Kd was 5 nM.

Molecule B30 yielded a Kd of 30 nM. Compared with the last molecule, the Kd is about 6-fold higher.

The molecule B31 registered a Kd of 0.001 nM.

B32: the dissociation constant Kd amounted to 20 nM.

In turn, B33 displayed a Kd of 3 nM.

B34: binding was characterised by a dissociation constant (Kd) of 10 nM.

Staying with this series, now noted: tags: Calbiochem; chain copies: 2; label: 3' A16 tail for immobilisation; GGUGCU bulge (vsfold4).
B35: the dissociation constant (Kd) is 20 nM. This counts as double-digit nanomolar.
